From patent publication US7982017B2, “Antibodies recognizing a carbohydrate containing epitope on CD-43 and CEA expressed on cancer cells and methods using same” (BioAlliance C.V., priority 2007, dated 2011)

How the values were obtained:
COLO 205 cells [1] = assay: Six-hour apoptosis assay (Annexin V / PI, FACS) in COLO 205; format: cell-based; settings: 6 h
Description: (§1) 1.5×10^5 of COLO 205 cells were seeded into the wells of 96-well plates. Aliquots of purified m5F1, c5F1-v0, c5F1-v15, c5F1-v16 and control antibodies at the concentration ranging from 2 to 32 ug/ml were prepared freshly in culture medium and added to each well. The sample treated with m9E10 and h16C11A were used as isotype control. The treated cells were kept at 37° incubator for 6 h before FACS analysis for apoptosis. For cellular apoptosis assay, Annexin V staining was measured using Annexin-V-FITC Apoptosis Detection Kit (Strong Biotech, Cat. No. AVK250) following the manufacturer's instruction. In brief, the treated cells were harvested and resuspended in Annexin V binding buffer containing Annexin V-FITC at room temperature. After 15 min incubation in the dark, the cells were washed twice with 200 μl of Annexin V binding buffer. Before FACS analysis, 0.25 μg/ml of propidium iodide (PI) was added. All flow cytometric analyses were performed on a BD-LSR flow cytometer (Becton Dickinson) using the Cell Quest software. The Annexin VI positive and/or PI positive cells are considered apoptotic cells.
1.5×10^5 of Colo205 cells were seeded into the wells of 96-well plates. Aliquots of purified m5F1, c5F1, c5F1-v17, c5F1-v24, c5F1-v25 and control antibodies at the concentration ranging from 8 to 32 ug/ml were prepared freshly in culture medium and added to each well. The treated cells were kept at 37° incubator for 6 h before FACS analysis for apoptosis. For cellular apoptosis assay, Annexin V staining was measured using Annexin-V-FITC Apoptosis Detection Kit (Strong Biotech, Cat. No. AV 250) following the manufacturer's instruction. In brief, the treated cells were harvested and resuspended in Annexin V binding buffer containing Annexin V-FITC at room temperature. After 15 min incubation in the dark, the cells were washed twice with 200 ul of Annexin V binding buffer. Before FACS analysis, 0.25 ug/ml of propidium iodide (PI) was added. All flow cytometric analyses were performed on a BD-LSR flow cytometer (Becton Dickinson) using the Cell Quest software. The Annexin VI positive and/or PI positive cells are considered apoptotic cells.

COLO 205 cells [2] = assay: Binding assay: flow cytometric binding of 5F1 antibodies to COLO 205 cells; settings: for binding to Colo 205 (words): FIG. 3, 0.125 to 4 ug/ml
Description: Purified m5F1, c5F1-v0, c5F1-v15 and c5F1-v16 antibodies at the concentration ranging from 0.125 to 4 ug/ml were added to 1.5×10^5 COLO 205 cells and incubated for 30 min at 4° C., washed for twice with PBS containing 2% FBS and 0.05% NaN3, followed by incubation with 1 μg/ml of corresponding secondary antibodies (R-PE-conjugated goat F(ab′)2 anti-mouse IgG(H+L), Southern Biotech, Cat. No. 1032-09; or R-PE-conjugated goat anti-human IgG, Southern Biotech, Cat. No. 2040-09) at 4° C. for 30 min. At the end of staining, samples were washed twice with PBS containing 2% FBS and 0.05% NaN3 and analyzed by flow cytometer. All flow cytometric analyses were performed on a BD-LSR flow cytometer (Becton Dickinson) using the Cell Quest software.
Purified m5F1, c5F1-v0, c5F1-yl7, c5F1-v24 and c5F1-v25 antibodies at 1 ug/ml were added to 2×10^5 Colo 205 cells and incubated for 30 min at 4° C., washed for twice with PBS containing 1% FBS, followed by incubation with 1 ug/ml of corresponding secondary antibodies (R-PE-conjugated goat F(ab′)2 anti-mouse IgG(H+L), Southern Biotech, Cat. No. 1032-09; or R-PE-conjugated goat anti-human IgG, Southern Biotech, Cat. No. 2040-09) at 4° C. for 30 min. At the end of staining, samples were washed twice with PBS containing 1% FBS and 0.05% NaN3 and analyzed by flow cytometer. All flow cytometric analyses were performed on a BD-LSR flow cytometer (Becton Dickinson) using the Cell Quest software.

SU.86.86 cells [3] = assay: Binding to SU.86.86 pancreatic cancer cells by flow cytometry
Description: Purified m5F1 and control antibodies at 1 ug/ml were added to 2×10^5 SU.86.86 cells and incubated for 1 hour at 4° C., washed twice with PBS containing 1% FBS, followed by incubation with 1 ug/ml of corresponding secondary antibodies (R-PE-conjugated goat F(ab′)2 anti-mouse IgG(H+L), Southern Biotech, Cat. No. 1032-09) at 4° C. for 1 hour. At the end of staining, samples were washed twice with PBS containing 1% FBS and analyzed by flow cytometer. All flow cytometric analyses were performed on a BD-LSR flow cytometer (Becton Dickinson) using the Cell Quest software.
(§2) Binding experiments were carried out for antibodies c5F1.v15, c5F1.v16, and c5F1.v24. […] Apoptosis assay was carried out for antibody c5F1.v15.

SU.86.86 cells [4] = assay: Apoptosis induction of SU.86.86 cells (6 h, Annexin V / PI); format: cell-based
Description: as §1, with “2×10^5” for “1.5×10^5”, “SU86.86” for “COLO 205”, “12-well” for “96-well”, “m5F1” for “m5F1, c5F1-v0, c5F1-v15, c5F1-v16 and control antibodies”, “Control antibody at 32 ug/ml was included for background signal measurement.” for “The sample treated with m9E10 and h16C11A were used as isotype control.”
as §2

B1: c5F1-v16: chimeric 5F1, heavy chain v16 (hinge C220S), light chain v0[L] (antibody)
heavy: EVQLQQSGPELVKPGASVRMSCTASGYTFTSYVMHWIKQKPGQGLDWIGYINPYNGGTQYNEKFKGKATLTSDKSSSTAYMELSSLTSEDSAVYYCARRTFPYYFDYWGQGTTLTVSSASTKGPSVFPLAPSSKSTSGGTAALGCLVKDYFPEPVTVSWNSGALTSGVHTFPAVLQSSGLYSLSSVVTVPSSSLGTQTYICNVNHKPSNTKVDKKVEPKSSDKTHTCPPCPAPELLGGPSVFLFPPKPKDTLMISRTPEVTCVVVDVSHEDPEVKFNWYVDGVEVHNAKTKPREEQYNSTYRVVSVLTVLHQDWLNGKEYKCKVSNKALPAPIEKTISKAKGQPREPQVYTLPPRDELTKNQVSLTCLVKGFYPSDIAVEWESNGQPENNYKTTPPVLDSDGSFFLYSKLTVDKSRWQQGNVFSCSVMHEALHNHYTQKSLSLSPGK
light: DVLMTQTPLSLPVSLGDQASISCRSSQSILHSNGNTYLEWYLQKPGQSPKLLIYKVSNRFSGVPDRFSGSGSGTDFTLKISRVEAEDLGVYYCFQGSHAPLTFGAGTKLELKRTVAAPSVFIFPPSDEQLKSGTASVVCLLNNFYPREAKVQWKVDNALQSGNSQESVTEQDSKDSTYSLSSTLTLSKADYEKHKVYACEVTHQGLSSPVTKSFNRGEC
For B1, the “apoptosis-inducing activity in COLO 205” value (COLO 205 cells [1]; 2 to 32 ug/ml, compared with m5F1) was “almost as efficient as m5F1”, the “% of Annexin V and/or PI positive cells” value (COLO 205 cells [1]; Table 7, 4 ug/ml) was 58% and the “% of Annexin V and/or PI positive cells” value (COLO 205 cells [1]; Table 7, 8 ug/ml) was 78%. The “% of Annexin V and/or PI positive cells” value (COLO 205 cells [1]; Table 7, 16 ug/ml) was 92%, the “% of Annexin V and/or PI positive cells” value (COLO 205 cells [1]; Table 7, 32 ug/ml) was 96% and the “binding to Colo 205 (words)” value (COLO 205 cells [2]) was “relatively less compared to c5F1”. The “binding to Colo 205 (words)” value (COLO 205 cells [2]; listed as c5F1v16) was “significant binding” and the “binding to SU.86.86 cells” value (SU.86.86 cells [3]) was “significant binding”.

B2: m5F1: murine antibody 5F1, isotype murine IgG3; heavy chain V region SEQ ID NO:1, light chain V region SEQ ID NO:2 (antibody, V domains shown)
VH: MEWSWIFLFLLSGTAGVHSEVQLQQSGPELVKPGASVRMSCTASGYTFTSYVMHWIKQKPGQGLDWIGYINPYNGGTQYNEKFKGKATLTSDKSSSTAYMELSSLTSEDSAVYYCARRTFPYYFDYWGQGTTLTVSS
VL: MKLPVRLLVLMFWIPASSSDVLMTQTPLSLPVSLGDQASISCRSSQSILHSNGNTYLEWYLQKPGQSPKLLIYKVSNRFSGVPDRFSGSGSGTDFTLKISRVEAEDLGVYYCFQGSHAPLTFGAGTKLELK
modifications: Murine
In the case of B2, the “% of Annexin V and/or PI positive cells” value (COLO 205 cells [1]; Table 7, 2 ug/ml) is reported as 35%, the “% of Annexin V and/or PI positive cells” value (COLO 205 cells [1]; Table 7, 4 ug/ml) is reported as 53% and the “% of Annexin V and/or PI positive cells” value (COLO 205 cells [1]; Table 7, 8 ug/ml) is reported as 76%. The “% of Annexin V and/or PI positive cells” value (COLO 205 cells [1]; Table 7, 16 ug/ml) was 92%, the “% of Annexin V and/or PI positive cells” value (COLO 205 cells [1]; Table 7, 32 ug/ml) was 93% and the “% of Annexin V and/or PI positive cells” value (COLO 205 cells [1]; Table 11 Exp. 1, 8 ug/ml) was 88%. The “% of Annexin V and/or PI positive cells” value (COLO 205 cells [1]; Table 11 Exp. 1, 16 ug/ml) was 92%, the “% of Annexin V and/or PI positive cells” value (COLO 205 cells [1]; Table 11 Exp. 1, 32 ug/ml) was 92% and the “% of Annexin V and/or PI positive cells” value (COLO 205 cells [1]; Table 11 Exp. 2, 8 ug/ml) was 89%. The “% of Annexin V and/or PI positive cells” value (COLO 205 cells [1]; Table 11 Exp. 2, 16 ug/ml) was 94%, the “% of Annexin V and/or PI positive cells” value (COLO 205 cells [1]; Table 11 Exp. 2, 32 ug/ml) was 96% and the “% of Annexin V and/or PI positive cells” value (SU.86.86 cells [4]; 2 ug/ml) was 60%. The “% of Annexin V and/or PI positive cells” value (SU.86.86 cells [4]; 4 ug/ml) was 72%, the “% of Annexin V and/or PI positive cells” value (SU.86.86 cells [4]; 8 ug/ml) was 78% and the “% of Annexin V and/or PI positive cells” value (SU.86.86 cells [4]; 16 ug/ml) was 89%. For the same molecule, the “% of Annexin V and/or PI positive cells” value (SU.86.86 cells [4]; 32 ug/ml) was 91%, the “apoptosis induction in SU.86.86 cells” value (SU.86.86 cells [4]; 2 to 32 ug/ml) was “induced apoptosis” and the “binding to Colo 205 (words)” value (COLO 205 cells [2]) was “significant binding”. The “Median Fluorescence Intensity (MFI)” value (COLO 205 cells [2]; Table 10, antibodies at 1 ug/ml) was 800, the “binding to SU.86.86 cells” value (SU.86.86 cells [3]) was “could bind” and the MFI (SU.86.86 cells [3]; Table 14, antibody at 1 ug/ml) was 131.
